The supplement of paper PMC9112550, “Optimization of the antimicrobial peptide Bac7 by deep mutational scanning” (BMC Biology, 2022)

Tested on: Escherichia coli TOP10
Experiment: shrunken log2 fold change of peptide-encoding DNA abundance (4.5 h post-induction vs induction); higher = less antimicrobial activity (less host growth inhibition)
Conditions: time post-induction: 4.5 h; library: site-saturation at positions 5, 18, 19, 20
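Also: peptides expressed intracellularly from a pBAD plasmid library in pooled LB shake-flask culture, induced with 0.3% L-arabinose, DNA abundance read by NGS, three biological replicates, DESeq2 with apeglm shrinkage.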

RRIRYRPPRLPRPRPRPVLRPRP
shrunken log2 fold change: 0.124

RRIRDRPPRLPRPRPRPFADPRP
shrunken log2 fold change: -0.0225

RRIRDRPPRLPRPRPRPVSEPRP
shrunken log2 fold change: 0.514

RRIRKRPPRLPRPRPRPQRAPRP
shrunken log2 fold change: 0.944

RRIRQRPPRLPRPRPRPGPQPRP
shrunken log2 fold change: 0.722

RRIRARPPRLPRPRPRPGQGPRP
shrunken log2 fold change: 0.204

RRIRQRPPRLPRPRPRPMRYPRP
shrunken log2 fold change: 0.0851

RRIRPRPPRLPRPRPRPWQCPRP
shrunken log2 fold change: -0.0562

RRIRGRPPRLPRPRPRPEHRPRP
shrunken log2 fold change: 0.102

RRIRVRPPRLPRPRPRPRPAPRP
shrunken log2 fold change: 0.678

RRIRTRPPRLPRPRPRPRSAPRP
shrunken log2 fold change: 0.0929

RRIRTRPPRLPRPRPRPAFEPRP
shrunken log2 fold change: 0.219

RRIRARPPRLPRPRPRPYIAPRP
shrunken log2 fold change: -0.438

RRIRIRPPRLPRPRPRPTYHPRP
shrunken log2 fold change: -0.949

RRIRNRPPRLPRPRPRPMHDPRP
shrunken log2 fold change: -0.117

RRIRKRPPRLPRPRPRPIKCPRP
shrunken log2 fold change: -0.29

RRIRVRPPRLPRPRPRPKGLPRP
shrunken log2 fold change: -0.239

RRIRFRPPRLPRPRPRPCTWPRP
shrunken log2 fold change: -0.0991

RRIRKRPPRLPRPRPRPNDNPRP
shrunken log2 fold change: -0.076

RRIRNRPPRLPRPRPRPARNPRP
shrunken log2 fold change: -0.0209

RRIRVRPPRLPRPRPRPHTEPRP
shrunken log2 fold change: -0.042

RRIRVRPPRLPRPRPRPKHVPRP
shrunken log2 fold change: -0.101

RRIRRRPPRLPRPRPRPTFKPRP
shrunken log2 fold change: 0.214

RRIRIRPPRLPRPRPRPVHRPRP
shrunken log2 fold change: -0.194

RRIRARPPRLPRPRPRPQMYPRP
shrunken log2 fold change: -0.3

RRIRIRPPRLPRPRPRPYHYPRP
shrunken log2 fold change: -0.415

RRIRHRPPRLPRPRPRPVYMPRP
shrunken log2 fold change: -0.2

RRIRNRPPRLPRPRPRPAVVPRP
shrunken log2 fold change: 0.251

RRIRARPPRLPRPRPRPTHKPRP
shrunken log2 fold change: 0.577

RRIRARPPRLPRPRPRPVMPPRP
shrunken log2 fold change: 0.457

RRIRSRPPRLPRPRPRPVVYPRP
shrunken log2 fold change: -0.0697

RRIRVRPPRLPRPRPRPPWKPRP
shrunken log2 fold change: -0.0783

RRIRGRPPRLPRPRPRPGEEPRP
shrunken log2 fold change: 0.965

RRIRPRPPRLPRPRPRPYKSPRP
shrunken log2 fold change: -0.0798

RRIRWRPPRLPRPRPRPCAAPRP
shrunken log2 fold change: 1.32

RRIRKRPPRLPRPRPRPNRNPRP
shrunken log2 fold change: -0.234

RRIRVRPPRLPRPRPRPICNPRP
shrunken log2 fold change: -0.183

RRIRCRPPRLPRPRPRPPNQPRP
shrunken log2 fold change: 0.107

RRIRWRPPRLPRPRPRPLKAPRP
shrunken log2 fold change: 0.749

RRIRMRPPRLPRPRPRPTSVPRP
shrunken log2 fold change: 0.172

RRIRPRPPRLPRPRPRPRWNPRP
shrunken log2 fold change: 0.115

RRIRKRPPRLPRPRPRPKKHPRP
shrunken log2 fold change: 0.276

RRIRLRPPRLPRPRPRPNPIPRP
shrunken log2 fold change: -0.237

RRIRIRPPRLPRPRPRPFVGPRP
shrunken log2 fold change: -0.134

RRIRWRPPRLPRPRPRPYKDPRP
shrunken log2 fold change: -0.33

RRIRIRPPRLPRPRPRPHECPRP
shrunken log2 fold change: -0.164

RRIRDRPPRLPRPRPRPNYYPRP
shrunken log2 fold change: -0.305

RRIRARPPRLPRPRPRPCHHPRP
shrunken log2 fold change: -0.0114

RRIRYRPPRLPRPRPRPNVMPRP
shrunken log2 fold change: 0.0307

RRIRNRPPRLPRPRPRPDRQPRP
shrunken log2 fold change: -0.0285

RRIRNRPPRLPRPRPRPDTVPRP
shrunken log2 fold change: -0.0521

RRIRMRPPRLPRPRPRPHCVPRP
shrunken log2 fold change: 0.0437

RRIRNRPPRLPRPRPRPNLCPRP
shrunken log2 fold change: -0.0109

RRIRRRPPRLPRPRPRPVDDPRP
shrunken log2 fold change: -0.0484

RRIRNRPPRLPRPRPRPIKTPRP
shrunken log2 fold change: -0.0156

RRIRDRPPRLPRPRPRPNAYPRP
shrunken log2 fold change: -0.043

RRIRVRPPRLPRPRPRPATAPRP
shrunken log2 fold change: 0.18

RRIRKRPPRLPRPRPRPPSKPRP
shrunken log2 fold change: 0.541

RRIRGRPPRLPRPRPRPQLQPRP
shrunken log2 fold change: 0.577

RRIRARPPRLPRPRPRPIMKPRP
shrunken log2 fold change: 0.102
